Non-standard residues stand in square brackets, D forms with d. NMeH = CN[C@@H](Cc1c[nH]cn1)C(=O)O; dNle = CCCC[C@@H](N)C(=O)O; Nle = CCCC[C@H](N)C(=O)O; dNMeA = CN[C@H](C)C(=O)O; R1 = not defined here
B1: CTX-1109 (peptide)
peptide: H-YV[Nle][dA]H[dF]R[dW]D-NH2
SMILES: CCCC[C@H](NC(=O)[C@@H](NC(=O)[C@@H](N)Cc1ccc(O)cc1)C(C)C)C(=O)N[C@H](C)C(=O)N[C@@H](Cc1c[nH]cn1)C(=O)N[C@H](Cc1ccccc1)C(=O)N[C@@H](CCCNC(=N)N)C(=O)N[C@H](Cc1c[nH]c2ccccc12)C(=O)N[C@@H](CC(=O)O)C(N)=O
B2: CTX-1106 (peptide)
peptide: H-YVE[dA]H[dF]R[dW]DRFG-OH
SMILES: CC(C)[C@H](NC(=O)[C@@H](N)Cc1ccc(O)cc1)C(=O)N[C@@H](CCC(=O)O)C(=O)N[C@H](C)C(=O)N[C@@H](Cc1c[nH]cn1)C(=O)N[C@H](Cc1ccccc1)C(=O)N[C@@H](CCCNC(=N)N)C(=O)N[C@H](Cc1c[nH]c2ccccc12)C(=O)N[C@@H](CC(=O)O)C(=O)N[C@@H](CCCNC(=N)N)C(=O)N[C@@H](Cc1ccccc1)C(=O)NCC(=O)O
B3: CTX-1107 (peptide)
peptide: H-YV[Nle]GH[dF]R[dW]D-NH2
SMILES: CCCC[C@H](NC(=O)[C@@H](NC(=O)[C@@H](N)Cc1ccc(O)cc1)C(C)C)C(=O)NCC(=O)N[C@@H](Cc1c[nH]cn1)C(=O)N[C@H](Cc1ccccc1)C(=O)N[C@@H](CCCNC(=N)N)C(=O)N[C@H](Cc1c[nH]c2ccccc12)C(=O)N[C@@H](CC(=O)O)C(N)=O
B4: CTX-1113 (peptide)
peptide: Ac-TGH[dF]R[dW]D-NH2
SMILES: CC(=O)N[C@H](C(=O)NCC(=O)N[C@@H](Cc1c[nH]cn1)C(=O)N[C@H](Cc1ccccc1)C(=O)N[C@@H](CCCNC(=N)N)C(=O)N[C@H](Cc1c[nH]c2ccccc12)C(=O)N[C@@H](CC(=O)O)C(N)=O)[C@@H](C)O
B5: CTX-1184 (peptide)
peptide: Ac-[Nle][dP]HFR[dW]DRFG-OH
SMILES: CCCC[C@H](NC(C)=O)C(=O)N1CCC[C@@H]1C(=O)N[C@@H](Cc1c[nH]cn1)C(=O)N[C@@H](Cc1ccccc1)C(=O)N[C@@H](CCCNC(=N)N)C(=O)N[C@H](Cc1c[nH]c2ccccc12)C(=O)N[C@@H](CC(=O)O)C(=O)N[C@@H](CCCNC(=N)N)C(=O)N[C@@H](Cc1ccccc1)C(=O)NCC(=O)O
B6: CTX-1186 (peptide)
peptide: Ac-[Nle][dA][NMeH]FR[dW]DRFG-OH
SMILES: CCCC[C@H](NC(C)=O)C(=O)N[C@H](C)C(=O)N(C)[C@@H](Cc1c[nH]cn1)C(=O)N[C@@H](Cc1ccccc1)C(=O)N[C@@H](CCCNC(=N)N)C(=O)N[C@H](Cc1c[nH]c2ccccc12)C(=O)N[C@@H](CC(=O)O)C(=O)N[C@@H](CCCNC(=N)N)C(=O)N[C@@H](Cc1ccccc1)C(=O)NCC(=O)O
B7: CTX-1181 (peptide)
peptide: Ac-[Nle][dV]HFR[dW]DRFG-OH
SMILES: CCCC[C@H](NC(C)=O)C(=O)N[C@@H](C(=O)N[C@@H](Cc1c[nH]cn1)C(=O)N[C@@H](Cc1ccccc1)C(=O)N[C@@H](CCCNC(=N)N)C(=O)N[C@H](Cc1c[nH]c2ccccc12)C(=O)N[C@@H](CC(=O)O)C(=O)N[C@@H](CCCNC(=N)N)C(=O)N[C@@H](Cc1ccccc1)C(=O)NCC(=O)O)C(C)C
B8: CTX-1123 (peptide)
peptide: Ac-[Nle][dA]HFR[dW]D-NH2
SMILES: CCCC[C@H](NC(C)=O)C(=O)N[C@H](C)C(=O)N[C@@H](Cc1c[nH]cn1)C(=O)N[C@@H](Cc1ccccc1)C(=O)N[C@@H](CCCNC(=N)N)C(=O)N[C@H](Cc1c[nH]c2ccccc12)C(=O)N[C@@H](CC(=O)O)C(N)=O
B9: CTX-1111 (peptide)
peptide: Ac-SGH[dF]R[dW]D-NH2
SMILES: CC(=O)N[C@@H](CO)C(=O)NCC(=O)N[C@@H](Cc1c[nH]cn1)C(=O)N[C@H](Cc1ccccc1)C(=O)N[C@@H](CCCNC(=N)N)C(=O)N[C@H](Cc1c[nH]c2ccccc12)C(=O)N[C@@H](CC(=O)O)C(N)=O
B10: CTX-1182 (peptide)
peptide: Ac-[Nle][dNle]HFR[dW]DRFG-OH
SMILES: CCCC[C@H](NC(C)=O)C(=O)N[C@H](CCCC)C(=O)N[C@@H](Cc1c[nH]cn1)C(=O)N[C@@H](Cc1ccccc1)C(=O)N[C@@H](CCCNC(=N)N)C(=O)N[C@H](Cc1c[nH]c2ccccc12)C(=O)N[C@@H](CC(=O)O)C(=O)N[C@@H](CCCNC(=N)N)C(=O)N[C@@H](Cc1ccccc1)C(=O)NCC(=O)O
B11: CTX-1183 (peptide)
peptide: Ac-[Nle][dNMeA]HFR[dW]DRFG-OH
SMILES: CCCC[C@H](NC(C)=O)C(=O)N(C)[C@H](C)C(=O)N[C@@H](Cc1c[nH]cn1)C(=O)N[C@@H](Cc1ccccc1)C(=O)N[C@@H](CCCNC(=N)N)C(=O)N[C@H](Cc1c[nH]c2ccccc12)C(=O)N[C@@H](CC(=O)O)C(=O)N[C@@H](CCCNC(=N)N)C(=O)N[C@@H](Cc1ccccc1)C(=O)NCC(=O)O
B12: CTX-1121 (peptide)
peptide: Ac-V[Nle][dA]HFR[dW]DRFG-OH
SMILES: CCCC[C@H](NC(=O)[C@@H](NC(C)=O)C(C)C)C(=O)N[C@H](C)C(=O)N[C@@H](Cc1c[nH]cn1)C(=O)N[C@@H](Cc1ccccc1)C(=O)N[C@@H](CCCNC(=N)N)C(=O)N[C@H](Cc1c[nH]c2ccccc12)C(=O)N[C@@H](CC(=O)O)C(=O)N[C@@H](CCCNC(=N)N)C(=O)N[C@@H](Cc1ccccc1)C(=O)NCC(=O)O
B13: CTX-1146 (peptide)
peptide: Ac-[Nle][dA]HFR[dW]D[dR]FG-OH
SMILES: CCCC[C@H](NC(C)=O)C(=O)N[C@H](C)C(=O)N[C@@H](Cc1c[nH]cn1)C(=O)N[C@@H](Cc1ccccc1)C(=O)N[C@@H](CCCNC(=N)N)C(=O)N[C@H](Cc1c[nH]c2ccccc12)C(=O)N[C@@H](CC(=O)O)C(=O)N[C@H](CCCNC(=N)N)C(=O)N[C@@H](Cc1ccccc1)C(=O)NCC(=O)O
B14: CTX-1119 (peptide)
peptide: H-YV[Nle][dA]HFR[dW]DRF-NH2
SMILES: CCCC[C@H](NC(=O)[C@@H](NC(=O)[C@@H](N)Cc1ccc(O)cc1)C(C)C)C(=O)N[C@H](C)C(=O)N[C@@H](Cc1c[nH]cn1)C(=O)N[C@@H](Cc1ccccc1)C(=O)N[C@@H](CCCNC(=N)N)C(=O)N[C@H](Cc1c[nH]c2ccccc12)C(=O)N[C@@H](CC(=O)O)C(=O)N[C@@H](CCCNC(=N)N)C(=O)N[C@@H](Cc1ccccc1)C(N)=O
B15: CTX-1185 (peptide)
peptide: Ac-[Nle]GHFR[dW]DRFG-OH
SMILES: CCCC[C@H](NC(C)=O)C(=O)NCC(=O)N[C@@H](Cc1c[nH]cn1)C(=O)N[C@@H](Cc1ccccc1)C(=O)N[C@@H](CCCNC(=N)N)C(=O)N[C@H](Cc1c[nH]c2ccccc12)C(=O)N[C@@H](CC(=O)O)C(=O)N[C@@H](CCCNC(=N)N)C(=O)N[C@@H](Cc1ccccc1)C(=O)NCC(=O)O
B16: CTX-1112 (peptide)
peptide: Ac-TGHFR[dW]D-NH2
SMILES: CC(=O)N[C@H](C(=O)NCC(=O)N[C@@H](Cc1c[nH]cn1)C(=O)N[C@@H](Cc1ccccc1)C(=O)N[C@@H](CCCNC(=N)N)C(=O)N[C@H](Cc1c[nH]c2ccccc12)C(=O)N[C@@H](CC(=O)O)C(N)=O)[C@@H](C)O

These binders were tested against human MC3R (human, UniProt P41968 1-323) (assay: cell-based or functional assay).
human MC3R, sequence (P41968 whole entry): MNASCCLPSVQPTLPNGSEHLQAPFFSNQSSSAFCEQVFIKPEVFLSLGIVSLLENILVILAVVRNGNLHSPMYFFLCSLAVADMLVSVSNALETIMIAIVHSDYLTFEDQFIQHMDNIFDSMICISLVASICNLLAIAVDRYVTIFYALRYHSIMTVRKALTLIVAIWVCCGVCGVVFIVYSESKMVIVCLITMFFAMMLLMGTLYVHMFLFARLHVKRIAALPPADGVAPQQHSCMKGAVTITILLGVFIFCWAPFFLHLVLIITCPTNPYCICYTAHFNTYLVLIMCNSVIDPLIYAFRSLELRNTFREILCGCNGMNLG

B1 was tested. Which “MC3R cAMP (EC50)” value did it give?
The value was 13.1 nM.

What about the “MC3R selectivity (relative to MC4R)” value of the same binder?
Its value is 10.6.

Which results are given for YVXAHFRWDRFG (Nle at 3; D-Ala at 4; D-Trp at 8; C-terminal amide) [CTX-1118]?
MC3R cAMP (EC50): 1.2 nM; MC3R selectivity (relative to MC4R): 59

Which results are given for B2?
MC3R cAMP (EC50): 5.8 nM; MC3R selectivity (relative to MC4R): 120

B3 was tested. Which “MC3R cAMP (EC50)” value did it give?
Its value is 4.4 nM.

And the “MC3R selectivity (relative to MC4R)” value?
The value was 2.4.

Which results are given for B4?
MC3R cAMP (EC50): 4430 nM; MC3R selectivity (relative to MC4R): 0.4

B5 was tested. Which “MC3R cAMP (EC50)” value did it give?
Its value is 607 nM.

What about the “MC3R selectivity (relative to MC4R)” value of the same binder?
The value was 28.

For B6, which “MC3R cAMP (EC50)” value is on record?
Its value is 200 nM.

And the “MC3R selectivity (relative to MC4R)” value?
The value was 1880.

With B7 as the binder, how does the “MC3R cAMP (EC50)” value read?
Its value is 102 nM.

What about the “MC3R selectivity (relative to MC4R)” value of the same binder?
The value was 718.

For B8, which “MC3R cAMP (EC50)” value is on record?
Its value is 213 nM.

What about the “MC3R selectivity (relative to MC4R)” value of the same binder?
Its value is 28.

Which results are given for YVXAHFRWDRFG (NMe-Tyr at 1; Nle at 3; D-Ala at 4; D-Trp at 8) [CTX-1124]?
MC3R cAMP (EC50): 1.7 nM; MC3R selectivity (relative to MC4R): 69

B9 was tested. Which “MC3R cAMP (EC50)” value did it give?
Its value is 17100 nM.

And the “MC3R selectivity (relative to MC4R)” value?
The value was 0.1.

Which “MC3R cAMP (EC50)” value does the source give for YVXAHFRWDRFG (Nle at 3; D-Ala at 4; D-Phe at 6; D-Trp at 8) [CTX-1104] here?
The value was 3.5 nM.

And the “MC3R selectivity (relative to MC4R)” value?
The value was 27.

How did the “MC3R cAMP (EC50)” value turn out when YVXAHFRWDRFG (D-Tyr at 1; Nle at 3; D-Ala at 4; D-Trp at 8) [CTX-1125] was run?
Its value is 1.7 nM.

What about the “MC3R selectivity (relative to MC4R)” value of the same binder?
The value was 747.

With YVXAHFRWDRFG (Nle at 3; D-Trp at 8) [CTX-1133] as the binder, how does the “MC3R cAMP (EC50)” value read?
The value was 1.4 nM.

And the “MC3R selectivity (relative to MC4R)” value?
Its value is 7.4.

Which “MC3R cAMP (EC50)” value does the source give for Ac-SGHFR[dW]D-NH2 [CTX-1110] here?
The value was 7400 nM.

What does the source list for Ac-[Nle][dA]HFR[dW]DR[dF]K(R1)-OH (reading uncertain) [CTX-1161]?
MC3R cAMP (EC50): 952 nM; MC3R selectivity (relative to MC4R): 22

With B10 as the binder, how does the “MC3R cAMP (EC50)” value read?
The value was 14.6 nM.

And the “MC3R selectivity (relative to MC4R)” value?
The value was 1410.

Which results are given for YVXFHFRWDRFG (Nle at 3; D-Phe at 4; D-Trp at 8) [CTX-1136]?
MC3R cAMP (EC50): 1.9 nM; MC3R selectivity (relative to MC4R): 37

For B11, which “MC3R cAMP (EC50)” value is on record?
Its value is 71.6 nM.

What about the “MC3R selectivity (relative to MC4R)” value of the same binder?
Its value is 515.

Which “MC3R cAMP (EC50)” value does the source give for B12 here?
The value was 3.1 nM.

And the “MC3R selectivity (relative to MC4R)” value?
Its value is 2120.

With B13 as the binder, how does the “MC3R cAMP (EC50)” value read?
The value was 170 nM.

Which results are given for B14?
MC3R cAMP (EC50): 1.9 nM; MC3R selectivity (relative to MC4R): 24

Which “MC3R cAMP (EC50)” value does the source give for B15 here?
Its value is 2.7 nM.

And the “MC3R selectivity (relative to MC4R)” value?
Its value is 2310.

Which results are given for R1-V[Nle][dA]HFR[dW]DRFG-OH (reading uncertain) [CTX-1149 (R1, SEQ ID NO 66)]?
MC3R cAMP (EC50): 710 nM; MC3R selectivity (relative to MC4R): 6800

Which results are given for B16?
MC3R cAMP (EC50): 4090 nM; MC3R selectivity (relative to MC4R): 8.6

From patent US20240287154A1, “MC3R AGONIST PEPTIDES” (The Regents of the University of Michigan, priority 2021, published 2024)
